Measurements taken from paper PMC5610937 (Journal of molecular biology, 2017).

Tests used:
Fc-hROR2 protein [1] = biological target: T1, Fc-hROR2 protein (Homo sapiens (Human)., UniProt Q01974); assay: ELISA
[2] = biological target: human ROR2 ectopically and stably expressed on mouse pre-B cell line 63-12 (Homo sapiens (Human)., UniProt Q01974); assay: flow cytometry on cells
[3] = biological target: human Fc fusion protein of the extracellular domain of mouse ROR1 (Mus musculus (Mouse)., UniProt Q9Z139); assay: ELISA
Fc-hROR2 protein [4] = biological target: T1, Fc-hROR2 protein; assay: SPR
[5] = biological target: mouse ROR2 extracellular domains displayed on HEK293F cells (Mus musculus (Mouse)., UniProt Q9Z138); assay: flow cytometry on cells
[6] = biological target: human ROR1 ectopically and stably expressed on mouse pre-B cell line 63-12 (Homo sapiens (Human)., UniProt Q01973); assay: flow cytometry on cells

mouse ROR2 extracellular domains displayed on HEK293F cells, sequence (Q9Z138 34-403): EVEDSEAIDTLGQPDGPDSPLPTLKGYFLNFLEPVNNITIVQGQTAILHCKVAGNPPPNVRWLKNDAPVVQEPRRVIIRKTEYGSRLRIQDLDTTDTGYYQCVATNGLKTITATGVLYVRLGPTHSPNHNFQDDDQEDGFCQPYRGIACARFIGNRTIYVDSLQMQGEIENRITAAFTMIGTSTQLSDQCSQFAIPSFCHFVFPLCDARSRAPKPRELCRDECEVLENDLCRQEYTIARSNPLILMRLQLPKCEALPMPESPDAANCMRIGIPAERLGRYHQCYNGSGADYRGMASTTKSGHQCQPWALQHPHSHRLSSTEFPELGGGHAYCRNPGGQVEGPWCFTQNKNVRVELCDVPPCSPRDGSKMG
human Fc fusion protein of the extracellular domain of mouse ROR1, sequence (Q9Z139 30-406): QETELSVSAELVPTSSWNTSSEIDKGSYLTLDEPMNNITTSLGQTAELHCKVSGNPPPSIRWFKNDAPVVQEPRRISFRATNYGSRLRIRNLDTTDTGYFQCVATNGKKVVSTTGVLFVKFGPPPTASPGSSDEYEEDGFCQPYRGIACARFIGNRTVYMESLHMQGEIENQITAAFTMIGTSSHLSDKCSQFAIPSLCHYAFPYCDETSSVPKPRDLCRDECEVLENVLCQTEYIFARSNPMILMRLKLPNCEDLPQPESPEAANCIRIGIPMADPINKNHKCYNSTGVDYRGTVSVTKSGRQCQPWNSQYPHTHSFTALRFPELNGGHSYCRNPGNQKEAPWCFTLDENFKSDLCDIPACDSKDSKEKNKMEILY

Row | binding result (Fc-hROR2 protein [1]) | binding result [2] | binding result [3] | Kd (Fc-hROR2 protein [4]) | binding result [5] | binding result [6] | Binder
1 | no binding (tested: 100 ng Fab in 50 μL) | no binding (tested: 10 μg/mL) | no binding (tested: 100 ng Fab in 50 μL) | – | – | – | chimeric rabbit/human anti-human ROR1 Fab ERR1-409 (Fab, V domains shown) VH: QEQLVESGGRLVTPGGSLTLTCTASGFSLSSYYMGWVRQAPGKGLEWIGTIYGGSGSTWYASWVKGRFTISKTSTAVDLKITSLTTEDTATYFCARSYPGWTTEPYFDIWGPGTLVTVSS VL: QFVLTQPQSVSGSLGQTVSISCNRDSGNIEDYYVHWYQQHPGKAPTTVIYNDDQRPSGVPDRFSGSIDSTSNSASLTITGLLAEDEADYYCLSSDSSAYVFGGGTQLTVT
2 | no binding (tested: 100 ng Fab in 50 μL) | no binding (tested: 10 μg/mL) | binds | – | – | – | chimeric rabbit/human anti-human ROR1 Fab ERR1-306 (Fab, V domains shown) VH: QEQLKESGGGLVQPGGSLKLSCKASGFDLSNYGVSWVRQAPGKGLEWIGYIDPTFDYTYYASWVNGRFSISRENTQNTVSLQINSLTPADTATYFCARWVYGVDDYGDGNWLDLWGQGTLVTISS VL: QFVLTQSPSVSAALGASAKLTCTLSSAHKTYTIDWYQQQQGEAPRYLMELKSDGSYTKGTGVPDRFSGSSSGADRYLIIPSVQADDEADYYCGTDYSGGYVFGGGTQLTVT
3 | – | – | – | 4150 nM | binds | no binding | chimeric rabbit/human anti-human ROR2 Fab XBR2-TOP72 (Fab, V domains shown) VH: QEQLEESGGRLVTPGTPLTLTCTVSGIDLSSNAMSWVRQAPGKGLEYVGFINGGGGVHYASWARGRFTISKTSTTVDLKITSPTTEDTATYFCARAGTTYYTSFNLWGPGTLVTISS VL: QFVLTQSPSASAALGSSAKLTCTLSSAHKTYTIAWYQQQQGEAPRLLMMLRTDGSYTKGTGVPDRFSGSSSGADRYLIISSVQADDAAGYYCGADYSGGYVFGGGTQLTVT
4 | – | – | – | 2280 nM | binds | no binding | chimeric rabbit/human anti-human ROR2 Fab XBR2-433 (Fab, V domains shown) VH: QSVKESEGGLFKPTDTLTLTCTVSGFSLSTYGVSWVRQAPGNGLEWIGAIGSSGSANYASWAKDRSTITRNTNLNTVTLKMTSLTAADTATYFCARDGYYSSGWGPYFNIWGPGTLVTISS VL: SFVLTQPASVQVNLGQTVSLTCTADTLSRSYASWYQQKPGQAPVLLIYRDTSRPSGVPDRFSGSSSGNTATLTISGAQAGDEADYYCATSGGSGSNPQYVFGGGTQLTVT
5 | no binding (tested: 100 ng Fab in 50 μL) | no binding (tested: 10 μg/mL) | no binding (tested: 100 ng Fab in 50 μL) | – | – | – | chimeric rabbit/human anti-human ROR1 Fab ERR1-TOP43 (Fab, V domains shown) VH: QSLEESGGRLVTPGTPLTLTCTVSGFSLSSYWMSWVRQAPGKGLEWIGAIYGSGNTYYASWAKGRFTISKTSTTVDLKITSPTTEDTATYFCARDVHSTATDLWGPGTLVTISS VL: SYELTQLPSVSVSLGQTARITCGGNNIGSKAVNWYQQKPGLAPGLLIYNDDERPSGVPDRFSGSNSGDTATLTISGAQAGDEADYYCQLWDSSAGAYVFGGGTQLTVT
6 | no binding (tested: 100 ng Fab in 50 μL) | no binding (tested: 10 μg/mL) | no binding (tested: 100 ng Fab in 50 μL) | – | – | – | chimeric rabbit/human anti-human ROR1 Fab ERR1-TOP54 (Fab, V domains shown) VH: QSLEESGGRLVTPGTPLTLTCTASGFSLSDYYMSWVRQAPGEGLEWIGTIYGGSGNTWYATWAKGRFTISKTSTTVDLKITSPTTEDTATYFCARDFGLSTGGLWGPGTLVTISS VL: SYELTQLPSVSVSLGQTARITCGGNSIGSKAVNWYQQKPGLAPGLLIYDDDERPSGVPDRFSGSNSGDTATLTISGAQAGDEADYYCQLWDSSARAFVFGGGTQLTVT
7 | no binding (tested: 100 ng Fab in 50 μL) | no binding (tested: 10 μg/mL) | no binding (tested: 100 ng Fab in 50 μL) | – | – | – | chimeric rabbit/human anti-human ROR1 Fab ERR1-316 (Fab, V domains shown) VH: QEQLEESGGRLVTPGTPLTLTCTASGFFLSSYYVSWVRQAPGKGLEWIGAIGTGGSAYYASWAKSRSTITRNTNLSTVTLKMTSLTAADTATYFCARDHPNYGMDLWGPGTLVTVSS VL: SYELTQLPSVSVSLGQTARITCGGNSIGSKAVNWYQQKPGLAPGLLIYDDDERPSGVPDRFSGSNSGDTATLTISGAQAGDEADYYCQLWDSSTGAYAFGGGTQLTVT
8 | no binding (tested: 100 ng Fab in 50 μL) | no binding (tested: 10 μg/mL) | no binding (tested: 100 ng Fab in 50 μL) | – | – | – | chimeric rabbit/human anti-human ROR1 Fab ERR1-403 (Fab, V domains shown) VH: QEQLKESGRGLVQPGGSLKLSCKASGFDFSGWYMTWVRQAPGKGLEWIGTIGTTKGRTYYASWVNGRFTISSNAQNTVDLQMNSLTAADRATYFCVRGSDYFDLWGPGTLVTISS VL: SYELTQLPSVSVSLGQTARITCGGNSIGSKAVNWYQQKPGLAPGLLIYDDDERPSGVPARFSGSNSGDTATLTISGAQAGDEADYYCQLWDSSAGAYVFGGGTQLTVT
9 | no binding (tested: 100 ng Fab in 50 μL) | no binding (tested: 10 μg/mL) | no binding (tested: 100 ng Fab in 50 μL) | – | – | – | chimeric rabbit/human anti-human ROR1 Fab ERR1-TOP15 (Fab, V domains shown) VH: QEQLVESGGRLVTPGGSLTLTCAASGFSPSSYWMSWVRQAPGKGLEWIGAIYVDSGSAYYASWAKSRFTISKTSSTTVDLKMTSLTTEDTAIYFCARDGWGSDVWGPGTLVTISS VL: SYELTQLPSVSVSLGQTARITCGGNSIGSKAVHWYQQKPGLAPGLLIYDDDERPSGVPDRFSGSNSGDTATLTISGAQAGDEADYYCQLWDSSAGAYVFGGGTQLTVT
10 | no binding (tested: 100 ng Fab in 50 μL) | no binding (tested: 10 μg/mL) | no binding (tested: 100 ng Fab in 50 μL) | – | – | – | chimeric rabbit/human anti-human ROR1 Fab ERR1-301 (Fab, V domains shown) VH: QEQLEESGGGLVTPGGSLTLTCTASGFTISTYHMSWVRQAPGKGLEWIGSIYAGSGSTYYASWVNGRFTISSNTTQNTVSLQMNSLTVADTATYFCARDHPSYGMDLWGPGTLVTVSS VL: SYELTQLPSVSVSLGQTARITCGGNSIGSKAVNWYQQKPGLAPGLLIYDDDERPSGVPDRFSASNSGDTATLTISGAQAEDEADYYCQLWDSSAVAYVFGGGTQLTVT
11 | – | – | – | 52.5 nM | binds | no binding | chimeric rabbit/human anti-human ROR2 Fab ERR2-302 (Fab, V domains shown) VH: QKQLVESGGGLVKPGGSLTLTCTVSGFSLSSYAIGWVRQAPGNGLEWIGIINSYGSTYYASWAKSRSTITRNTNLNTVTLKMTSLTAADTATYFCARSPYGYVSAWGYHRLDLWGQGTLVTISS VL: SYELTQLPSVSVSLGQTARITCGGASIGSKVVHWYQQKPGLAPGLLIYDDDERPSGVPDRFSGSNSGDTATLTISGAQAGDEAEYYCQLWDGSDVVFGGGTQLTVT
12 | no binding (tested: 100 ng Fab in 50 μL) | no binding (tested: 10 μg/mL) | no binding (tested: 100 ng Fab in 50 μL) | – | – | – | chimeric rabbit/human anti-human ROR1 Fab ERR1-TOP4 (Fab, V domains shown) VH: QSVEESGGRLVTPGTPLTLTCTASGIDLSRYAVNWVRQAPGKGLEWIGVISGSGTTYYASWAKGRFTISKTSTTVDLKITSPTTEDTATYFCARGWATDGIFDYDDTFNLWGPGTLVTVSS VL: SYELTQLPSVSVSLGQTARITCGGDSIESKAVHWYQQKPGLAPGLLVYNDDERPSGVPDRFSGSNSGDTATLTISGAQAGDEADYYCQLWDGSAYVFGGGTQLTVT
13 | no binding (tested: 100 ng Fab in 50 μL) | no binding (tested: 10 μg/mL) | binds | – | – | – | chimeric rabbit/human anti-human ROR1 Fab ERR1-TOP22 (Fab, V domains shown) VH: QSLEESGGRLVTPGTPLTLTCTVSGFSLSSYYMSWVRQAPGKGLEWIGTISSSGSTYYASWVKGRFTISKTSTTVDLKMTSLTTEDTATYFCARDLDYDMDLWGPGTLVTVSS VL: SYELTQLPSVSVSLGQTARITCGGNSIGSKAVHWYQQKPGLAPGLLIYNDDERPSGVPDRFSGSNSGDTATLTISGAQAGDEADYYCQLWDNNAAVFGGGTQLTVT
14 | no binding (tested: 100 ng Fab in 50 μL) | no binding (tested: 10 μg/mL) | no binding (tested: 100 ng Fab in 50 μL) | – | – | – | chimeric rabbit/human anti-human ROR1 Fab XBR1-402 (Fab, V domains shown) VH: QEQQKESGGGLFKPTDTLTLTCTASGFDISSYYMSWVRQAPGNGLEWIGAIGISGNAYYASWAKSRSTITRNTNLNTVTLKMTSLTAADTATYFCARDHPTYGMDLWGPGTLVTVSS VL: SYELTQLPSVSVSLGQTARITCEGNNIGSKAVHWYQQKPGLAPGLLIYDDDERPSGVPDRFSGSNSGDTATLTISGAQAGDEADYYCQVWDSSAYVFGGGTQLTVT
